The text below walks through data of publication PMC6533540, “DprA Is Essential for Natural Competence in Riemerella anatipestifer and Has a Conserved Evolutionary Mechanism”.

In this series the target is T1, DprA R123E (Riemerella anatipestifer ATCC11845, UniProt E4TBU2 1-367, R123E).
T1 sequence: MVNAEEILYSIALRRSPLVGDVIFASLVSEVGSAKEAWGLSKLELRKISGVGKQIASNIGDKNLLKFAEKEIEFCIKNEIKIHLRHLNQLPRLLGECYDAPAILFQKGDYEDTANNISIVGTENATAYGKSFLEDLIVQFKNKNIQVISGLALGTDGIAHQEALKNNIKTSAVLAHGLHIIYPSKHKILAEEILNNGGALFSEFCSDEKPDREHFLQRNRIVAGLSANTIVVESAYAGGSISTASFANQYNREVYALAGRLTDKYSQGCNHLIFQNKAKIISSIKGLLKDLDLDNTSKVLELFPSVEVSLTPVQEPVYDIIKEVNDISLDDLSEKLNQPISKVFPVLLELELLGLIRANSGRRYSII
Briefly: EMSA; up to 20 uM DprA R123E; 25 mM HEPES pH 7.0, 150 mM NaCl, 10% glycerol, 1 mM DTT, 0.05% IGEPAL, 30 min at 30 C; 8% native PAGE in 0.5x TBE on ice. The note with it: protein: recombinant, tags: C-terminal His6, chain copies: 2, label: biotin.

B1: RA-ssDNA2 (ssDNA)
DNA: AAAAACTACGGAACTGACTAAAGGCAGAAAAACTAAACGG
As for B1, the binding result is “no binding”.

B2: RA-ssDNA1 (ssDNA)
DNA: TAGGCTCTGCTAAGGAAGCGTGGGGTCTGTCTAAGTTGGA
In the case of B2, the binding result is on record as “no binding”.

B3: dsDNA annealed from RA-ssDNA1 (dsDNA)
DNA 1: B2 DNA
DNA 2: TCCAACTTAGACAGACCCCACGCTTCCTTAGCAGAGCCTA
On to B3, for which the binding result (blunt) is reported as “no binding”.
